Measured values from patent US20100150834A1 (BURNHAM INSTITUTE, published 2010).
No end group written: not given here.

T1: EphB4 (receptor of Table 1) (Mus musculus (Mouse), UniProt P54761 16-539)
T1 sequence: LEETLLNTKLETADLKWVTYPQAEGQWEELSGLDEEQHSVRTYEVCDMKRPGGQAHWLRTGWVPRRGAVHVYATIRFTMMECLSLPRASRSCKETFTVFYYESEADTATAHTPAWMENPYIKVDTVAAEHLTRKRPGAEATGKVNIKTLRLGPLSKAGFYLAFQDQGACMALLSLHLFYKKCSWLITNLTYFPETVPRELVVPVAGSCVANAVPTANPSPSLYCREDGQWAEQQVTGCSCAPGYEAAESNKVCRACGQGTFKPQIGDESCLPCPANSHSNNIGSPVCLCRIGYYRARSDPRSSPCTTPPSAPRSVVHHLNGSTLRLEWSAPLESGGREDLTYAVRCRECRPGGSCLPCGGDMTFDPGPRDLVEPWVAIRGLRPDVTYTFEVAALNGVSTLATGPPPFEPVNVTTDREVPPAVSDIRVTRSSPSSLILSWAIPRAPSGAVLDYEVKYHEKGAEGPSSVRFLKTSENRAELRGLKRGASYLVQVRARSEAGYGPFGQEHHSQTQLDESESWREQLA

T2: murine EphB4 ectodomain (murine, UniProt P54761 16-539)
T2 construct: extracellular domain; Coated on wells; also called immobilized EphB4 receptor ectodomain
T2 sequence (looked up): T1 sequence

T3: murine EphB4-Alkaline Phosphatase (murine, UniProt P54761 16-539)
T3 construct: also called EphB4-AP; EphB4 AP; not shown: alkaline phosphatase
T3 sequence (looked up): T1 sequence

B1: EWLSPNLAPSVR peptide (SEQ ID NO:1) (peptide)
peptide: EWLSPNLAPSVR
notes: Panned on EphB1; Footnote e: biotinylated and non-biotinylated peptides gave the same IC50
B2: biotinylated TNYLFSPNGPIA peptide (SEQ ID NO:24) (peptide)
peptide: TNYLFSPNGPIA
modifications: also: biotin, position not given here
notes: Footnote g: the ~50 µM value was obtained with the biotinylated peptide
B3: ephrin-B2 Fc (Example 7) (Fc fusion, not shown: a dimerising Fc or GST; small tags and cut ends)
chain: RSIVLEPIYWNSSNSKFLPGQGLVLYPQIGDKLDIICPKVDSKTVGQYEYYKVYMVDKDQADRCTIKKENTPLLNCARPDQDVKFTIKFQEFSPNLWGLEFQKNKDYYIISTSNGSLEGLDNQEGGVCQTRAMKILMKVGQDASSAGSARNHGPTRRPELEAGTNGRSSTTSPFVKPNPGSSTDGNSAGHSGNNLLGSEVALFA
notes: also called ephrin B2 Fc protein; ephrin B2 Fc fusion protein
B4: SNEWIQPRLPQH peptide (SEQ ID NO:18) (peptide)
peptide: SNEWIQPRLPQH
notes: Panned on EphB2; Footnote e: biotinylated and non-biotinylated peptides gave the same IC50

Target: EphB1 (receptor of Table 1)
Assay: EphB receptor specificity panel (% binding)

Binder | % Binding [%]
TYFDFQAWSIRA (Panned on EphB4) [TYFDFQAWSIRA peptide (SEQ ID NO:22)] | 10
SHWPISPYSLLS (Panned on EphB2) [SHWPISPYSLLS peptide (SEQ ID NO:14)] | 39
TNYLFSPNGPIA (Panned on EphB4; non-biotinylated form) [TNYLFSPNGPIA peptide (SEQ ID NO:24)] | 5
WHWTIEPFAITS (Panned on EphB2) [WHWTIEPFAITS peptide (SEQ ID NO:8)] | 99
B1 | 100
AHTFPYPHPKPH (Panned on EphB1) [AHTFPYPHPKPH peptide (SEQ ID NO:3)] | 100
DHWRILPFSLSS (Panned on EphB2) [DHWRILPFSLSS peptide (SEQ ID NO:10)] | 53

Target: EphB2 (receptor of Table 1)
Assay: EphB receptor specificity panel (% binding)

Binder | % Binding [%]
TYFDFQAWSIRA (Panned on EphB4) [TYFDFQAWSIRA peptide (SEQ ID NO:22)] | 21
SHWPISPYSLLS (Panned on EphB2) [SHWPISPYSLLS peptide (SEQ ID NO:14)] | 100
TNYLFSPNGPIA (Panned on EphB4; non-biotinylated form) [TNYLFSPNGPIA peptide (SEQ ID NO:24)] | 3
WHWTIEPFAITS (Panned on EphB2) [WHWTIEPFAITS peptide (SEQ ID NO:8)] | 100
B1 | 2
AHTFPYPHPKPH (Panned on EphB1) [AHTFPYPHPKPH peptide (SEQ ID NO:3)] | 4
DHWRILPFSLSS (Panned on EphB2) [DHWRILPFSLSS peptide (SEQ ID NO:10)] | 100

Target: EphB3 (receptor of Table 1)
Assay: EphB receptor specificity panel (% binding)

Binder | % Binding [%]
TYFDFQAWSIRA (Panned on EphB4) [TYFDFQAWSIRA peptide (SEQ ID NO:22)] | 18
SHWPISPYSLLS (Panned on EphB2) [SHWPISPYSLLS peptide (SEQ ID NO:14)] | 9
TNYLFSPNGPIA (Panned on EphB4; non-biotinylated form) [TNYLFSPNGPIA peptide (SEQ ID NO:24)] | 3
WHWTIEPFAITS (Panned on EphB2) [WHWTIEPFAITS peptide (SEQ ID NO:8)] | 22
B1 | 1
AHTFPYPHPKPH (Panned on EphB1) [AHTFPYPHPKPH peptide (SEQ ID NO:3)] | 8
DHWRILPFSLSS (Panned on EphB2) [DHWRILPFSLSS peptide (SEQ ID NO:10)] | 4

Target: T1, EphB4 (receptor of Table 1)
Assay: EphB receptor specificity panel (% binding)

Binder | % Binding [%]
TYFDFQAWSIRA (Panned on EphB4) [TYFDFQAWSIRA peptide (SEQ ID NO:22)] | 100
SHWPISPYSLLS (Panned on EphB2) [SHWPISPYSLLS peptide (SEQ ID NO:14)] | 4
TNYLFSPNGPIA (Panned on EphB4; non-biotinylated form) [TNYLFSPNGPIA peptide (SEQ ID NO:24)] | 100
WHWTIEPFAITS (Panned on EphB2) [WHWTIEPFAITS peptide (SEQ ID NO:8)] | 20
B1 | 1
AHTFPYPHPKPH (Panned on EphB1) [AHTFPYPHPKPH peptide (SEQ ID NO:3)] | 1
DHWRILPFSLSS (Panned on EphB2) [DHWRILPFSLSS peptide (SEQ ID NO:10)] | 1

Target: EphB6 (receptor of Table 1)
Assay: EphB receptor specificity panel (% binding)

Binder | % Binding [%]
TYFDFQAWSIRA (Panned on EphB4) [TYFDFQAWSIRA peptide (SEQ ID NO:22)] | 30
SHWPISPYSLLS (Panned on EphB2) [SHWPISPYSLLS peptide (SEQ ID NO:14)] | 8
TNYLFSPNGPIA (Panned on EphB4; non-biotinylated form) [TNYLFSPNGPIA peptide (SEQ ID NO:24)] | 7
WHWTIEPFAITS (Panned on EphB2) [WHWTIEPFAITS peptide (SEQ ID NO:8)] | 45
B1 | 0
AHTFPYPHPKPH (Panned on EphB1) [AHTFPYPHPKPH peptide (SEQ ID NO:3)] | 0
DHWRILPFSLSS (Panned on EphB2) [DHWRILPFSLSS peptide (SEQ ID NO:10)] | 3

Target: EphB1 (receptor of Table 1)
Assay: inhibition of ephrin-B2 AP binding to EphB1 (panning receptor)
Target sequence in this assay (Q8CBF3 18-540): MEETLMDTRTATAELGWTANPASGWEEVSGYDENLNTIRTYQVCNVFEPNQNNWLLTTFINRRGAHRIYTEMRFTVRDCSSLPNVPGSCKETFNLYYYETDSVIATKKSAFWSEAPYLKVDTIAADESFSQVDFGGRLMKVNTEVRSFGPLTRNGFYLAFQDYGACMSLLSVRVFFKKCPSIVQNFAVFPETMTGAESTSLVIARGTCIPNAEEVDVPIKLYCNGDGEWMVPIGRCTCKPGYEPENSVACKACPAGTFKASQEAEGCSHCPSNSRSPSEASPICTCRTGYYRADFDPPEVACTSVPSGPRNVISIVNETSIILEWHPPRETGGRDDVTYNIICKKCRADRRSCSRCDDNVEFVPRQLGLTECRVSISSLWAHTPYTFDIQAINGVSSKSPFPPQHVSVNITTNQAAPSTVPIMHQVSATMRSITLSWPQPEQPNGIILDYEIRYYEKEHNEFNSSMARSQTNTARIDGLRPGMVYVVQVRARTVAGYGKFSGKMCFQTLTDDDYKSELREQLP

Binder | IC50 [µM]
AHTFPYPHPKPH (Panned on EphB1) [AHTFPYPHPKPH peptide (SEQ ID NO:3)] | ~150

Target: EphB2 (receptor of Table 1)
Assay: inhibition of ephrin-B2 AP binding to EphB2 (panning receptor)

Binder | IC50 [µM]
SHWPISPYSLLS (Panned on EphB2) [SHWPISPYSLLS peptide (SEQ ID NO:14)] | > 100
WHWTIEPFAITS (Panned on EphB2) [WHWTIEPFAITS peptide (SEQ ID NO:8)] | > 100
DHWRILPFSLSS (Panned on EphB2) [DHWRILPFSLSS peptide (SEQ ID NO:10)] | > 100

Target: T2, murine EphB4 ectodomain
Assay: inhibition of murine ephrin-B2 AP binding to immobilised murine EphB4 ectodomain

Binder | IC50 [µM]
TNYLFSPNGPIARAW (Synthetic, not biotinylated) [TNYL-RAW peptide TNYLFSPNGPIARAW (SEQ ID NO:39)] | ~0.04

Target: T3, murine EphB4-Alkaline Phosphatase
Assay: competition ELISA: murine EphB4-AP binding to immobilised murine ephrin-B2-Fc
Method: Reati-bind Protein A coated strip plates were washed three times with wash buffer TBST/Ca. […] The plates were washed four times with TBST/Ca. […] Plates were incubates for 3 hours at ambient temperature, then washed four times with TBST/Ca. Substrate, 1 mg/ml PNPP in SEAP buffer, was added in the amount of 100 μl/well. (2×SEAP buffer (pH=9.8) was prepared by: adding 2.1 ml diethanolamine and 10 μl 1M MgCl₂ to 10 ml (total) water; adjusting pH to 9.8; wrapping in foil and storing at ambient temperature; and diluting with water to 1× on day of use).

Binder | IC50 [µM]
TNYLFSPNGPIARAW (Synthetic, not biotinylated) [TNYL-RAW peptide TNYLFSPNGPIARAW (SEQ ID NO:39)] | 0.016

Target: T1, EphB4 (receptor of Table 1)
Assay: inhibition of ephrin-B2 AP binding to EphB4 (panning receptor); biotinylated peptide

Binder | IC50 [µM]
B2 | ~50

Target: T1, EphB4 (receptor of Table 1)
Assay: inhibition of ephrin-B2 AP binding to EphB4 (panning receptor); limited by solubility

Binder | IC50 [µM]
TYFDFQAWSIRA (Panned on EphB4) [TYFDFQAWSIRA peptide (SEQ ID NO:22)] | > 50

Target: T1, EphB4 (receptor of Table 1)
Assay: inhibition of ephrin-B2 AP binding to EphB4 (panning receptor); non-biotinylated peptide

Binder | IC50 [µM]
TNYLFSPNGPIA (Panned on EphB4; non-biotinylated form) [TNYLFSPNGPIA peptide (SEQ ID NO:24)] | 150

Target: T3, murine EphB4-Alkaline Phosphatase
Assay: ELISA binding curve: ephrin-B2 Fc immobilised, increasing volumes of murine EphB4 AP, OD405; one experiment

Binder | Kd [µM]
B3 | 0.0006

Target: EphB1 (receptor of Table 1)
Assay: inhibition of ephrin-B2 AP binding to EphB1 (panning receptor); biotinylated and non-biotinylated peptide gave the same result
Target sequence in this assay (Q8CBF3 18-540): as above

Binder | IC50 [µM]
B1 | ~10

Target: EphB2 (receptor of Table 1)
Assay: inhibition of ephrin-B2 AP binding to EphB2 (panning receptor); biotinylated and non-biotinylated peptide gave the same result

Binder | IC50 [µM]
B4 | ~15
